“Also recorded” adds a separate entry of the source.
How the values were obtained:
[1] = Liquid-liquid phase separation by optical microscopy; assay type: physicochemical; conditions: for ability to undergo LLPS / phase separation: various pH and salt (NaCl) concentration; for morphology of the separated phase: optical micrographs after LLPS; for range of conditions allowing LLPS: compared among variants; for highest pH at which LLPS was observed: N-variants, high salt; for minimal peptide concentration for LLPS at the highest pH: V7-N at pH 8, V6-N at pH 7, high salt
Experimental: In Example 2 below, phase separation behavior of protein variants and peptides was studied using a Zeiss Axio Scope A1 microscope (Carl Zeiss Pte Ltd., Germany) in the reflection mode, with differential interference contrast (DIC) filters. Images were taken with an AxioCam MRc 5 camera under the control of AxioVision software.
Liquid-liquid phase separation properties of protein variants and peptides at different buffer conditions were assessed using the method described in (Tan et al, Nat. Chem. Biol. 11, 488-495). Briefly, protein/peptide stock solution (10 mg/mL in 10 mM acetic acid, pH 3.3) was added to a buffer solution in a volume ratio 1:5 (protein/peptide stock:buffer). The mixture was then pipetted onto a microscopy glass slide and imaged using the optical microscope.

[2] = Circular dichroism spectroscopy of insulin; assay type: physicochemical
Source text: Circular dichroism (CD) spectra was collected using a quartz cuvette of 0.2/0.5 mm optical pathlength. Data collection was done on AVIV 420 Circular Dichroism spectrometer with the following parameters: average of three scans per experiment between wavelength range from 190 to 250 nm, 1.0 nm wavelength steps with 1.00 nm bandwidth and 0.1 s averaging time. Each experiment was repeated for 3 times and averaged to obtain the final spectrum. The final spectrum was then smoothed and plotted using originPro9.1.

**Q.** For “GA-25: synthetic peptide of HBP-1 repeats harboring only one GHGLY motif (GAGFAGHGLHGAGFAGHGLYGAGFA; HBP-1 derived peptide GA-25)”, which “ability to undergo LLPS / phase separation” value [1] is on record?
**A.** remained in solution in all tested buffer conditions

**Q.** Which “ability to undergo LLPS / phase separation” value [1] does the source give for GAGFA [pentapeptide] here?
**A.** no phase separation was observed

**Q.** Which “ability to undergo LLPS / phase separation” value [1] does the source give for “GH-25: synthetic peptide of HBP-1 repeats harboring only one GHGLY motif (GHGLHGAGFAGHGLYGAGFAGHGLH; HBP-1 derived peptide GH-25)” here?
**A.** remained in solution in all tested buffer conditions

**Q.** For “GHGLYGAGFAGAGFAGAGFAGHGLY (GHGLYGAGFAGAGFAGAGFAGHGLY) [GY-25-V1]”, which “morphology of the separated phase” value [1] is on record?
**A.** dense and compact hydrogel

**Q.** Which “morphology of the separated phase” value [1] does the source give for “GHGLYGHGLHGHGLHGHGLHGHGLY (GHGLYGHGLHGHGLHGHGLHGHGLY) [GY-25-V2]” here?
**A.** only formed micro-droplets

**Q.** What does the source list for “GHGLY GHGLY GHGLY GHGLY (GHGLYGHGLYGHGLYGHGLY) [GY-20]”?
**A.** morphology of the separated phase [1]: only formed micro-droplets; ability to undergo LLPS / phase separation [1]: Phase separation was observed

**Q.** With GHGLY [pentapeptide] as the molecule, how does the “ability to undergo LLPS / phase separation” value [1] read?
**A.** no phase separation was observed

**Q.** For “GY-15-V1: 3 copies of the GHGLY motif arranged in tandem (GHGLYGHGLYGHGLY)”, which “ability to undergo LLPS / phase separation” value [1] is on record?
**A.** no phase separation was observed

**Q.** For “GY-15-V2: GAGFA motif flanked by GHGLY (GHGLYGAGFAGHGLY; Artificial peptide GY-15-V2)”, which “ability to undergo LLPS / phase separation” value [1] is on record?
**A.** no phase separation was observed

**Q.** For “V3-C: C-terminus fragment of DgHBP-1 Lys mutant after trypsin cleavage, longest section of repetitive region (GHGLHGAGFAGHGLYGAGFAGHGLHGFAGHGLYGAGFAGHGLGLGGLHGALGHGALAHY; HBP-1 derived peptide V3-C)”, which “range of conditions allowing LLPS” value [1] is on record?
**A.** broadest pH range among all tested variants

**Q.** What about the “lowest protein concentration of phase separation” value ([1]; pH 8) of the same molecule?
**A.** 30 µM

**Q.** With insulin [reference compound] as the molecule, how does the “CD: secondary structure” value ([2]; pH 5.5 to 7.5) read?
**A.** not disrupted

**Q.** With “released insulin: insulin released from dissociated coacervates” as the molecule, how does the “CD: characteristic minima of α-helices at 208 and 222 nm” value ([2]; after coacervation and release) read?
**A.** still visible

B1: V1-C: DgHBP-1 mutant lacking the first 66 amino acids, containing all C-terminal modular repeats (protein)
chain: MHHHHHHSSGVDLGTENLYFQSMMGHGGFAGHGLYGPGFAGHGLLGAGYAGLGLHGAGFAGHGLHGAGFAGHGLYGAGFAGHGLHGFAGHGLYGAGFAGHGLGLGGLHGALGHGALAHY
modifications: HBP-1 derived peptide V1-C
notes: DgHBP-1 mutant lacking the first 66 amino acids, containing all C-terminal modular repeats
**Q.** For B1, which “ability to undergo LLPS / phase separation” value [1] is on record?
**A.** underwent phase separation and formed coacervates; also recorded: underwent LLPS in the same way as full-length protein

B2: V4-N: N-terminus fragment of DgHBP-1 Lys mutant after trypsin cleavage (protein)
chain: MQLYGAPAVGGVVENAVNAAESGAAATHDAQGAYAEADTAGVLDVNHAEHHDGVHDASGYGFGGLAGHGGFAGHGLYGPGFAGHGLLGAGYAGLGLHK
modifications: HBP-1 derived peptide V4-N
notes: N-terminus fragment of DgHBP-1 Lys mutant after trypsin cleavage
**Q.** For B2, which “ability to undergo LLPS / phase separation” value [1] is on record?
**A.** could not be induced

B3: V2-C: DgHBP-1 variant lacking the first 31 amino acids of the repetitive region, truncated at G98 (protein)
chain: MHHHHHHSSGVDLGTENLYFQSMMGAGFAGHGLHGAGFAGHGLYGAGFAGHGLHGFAGHGLYGAGFAGHGLGLGGLHGALGHGALAHY
modifications: HBP-1 derived peptide V2-C
notes: DgHBP-1 variant lacking the first 31 amino acids of the repetitive region, truncated at G98
**Q.** Which results are given for B3?
**A.** protein concentration required to form coacervates [1]: ca. 30 μmol; ability to undergo LLPS / phase separation [1]: formed coacervates; ability to undergo LLPS / phase separation ([1]; listed as V-2C): underwent LLPS in the same way as full-length protein

B4: V3-N: N-terminus fragment of DgHBP-1 Lys mutant after trypsin cleavage (protein)
chain: MQLYGAPAVGGVVENAVNAAESGAAATHDAQGAYAEADTAGVLDVNHAEHHDGVHDASGYGFGGLAGHGGFAGHGLYGPGFAGHGLLGAGYAGLGLHGAGFAK
modifications: HBP-1 derived peptide V3-N
notes: as for B2
**Q.** With B4 as the molecule, how does the “ability to undergo LLPS / phase separation” value [1] read?
**A.** could not be induced

B5: N-terminal (M1-R81) fragment: DgHBP-2 N-terminal trypsin fragment lacking the modular repeats (protein)
chain: MQFFGAGPFNTAHHSAVSDAAAAHHDAAGEYAQNAATGLLDTHHNENHDMTHDLANGYGLHEHDEQHHGLADGLHQEYAAR
modifications: N-terminal fragment of HBP-2
notes: DgHBP-2 N-terminal trypsin fragment lacking the modular repeats
**Q.** For B5, which “ability to undergo LLPS / phase separation” value [1] is on record?
**A.** only the C-terminal fragment phase-separated

B6: C-terminal (A82-R172): DgHBP-2 C-terminal trypsin fragment containing the whole repetitive region (protein)
chain: AAQGANAVHNDAAQSHSALAAANTFGHGHAPYAAYGHGVYGHGPYGHGPYGHGLYGHGLYGHGPYGHGLYGHGAFGHGLNAYAPLVGHGLR
modifications: C-terminal fargment of HBP-2
notes: DgHBP-2 C-terminal trypsin fragment containing the whole repetitive region
**Q.** For B6, which “ability to undergo LLPS / phase separation” value [1] is on record?
**A.** phase-separated into coacervates

B7: V6-N: N-terminus fragment of DgHBP-1 Lys mutant after trypsin cleavage (protein)
chain: MQLYGAPAVGGVVENAVNAAESGAAATHDAQGAYAEADTAGVLDVNHAEHHDGVHDASGYGFGGLAGHGGFAGHGLYGPGFAGHGLLGAGYAGLGLHGAGFAGHGLHGAGFAGHGLYK
modifications: HBP-1 derived peptide V6-N
notes: as for B2
**Q.** What does the source list for B7?
**A.** highest pH at which LLPS was observed [1]: 7; minimal peptide concentration for LLPS at the highest pH [1]: 400 μM; range of conditions allowing LLPS [1]: over a wider range of conditions; morphology of the separated phase [1]: hydrogels; ability to undergo LLPS / phase separation [1]: only at high salt concentrations

B8: V7-N: N-terminus fragment of DgHBP-1 Lys mutant after trypsin cleavage (protein)
chain: MQLYGAPAVGGVVENAVNAAESGAAATHDAQGAYAEADTAGVLDVNHAEHHDGVHDASGYGFGGLAGHGGFAGHGLYGPGFAGHGLLGAGYAGLGLHGAGFAGHGLHGAGFAGHGLYGAGFAK
modifications: HBP-1 derived peptide V7-N
notes: as for B2
**Q.** What does the source list for B8?
**A.** highest pH at which LLPS was observed [1]: 8; minimal peptide concentration for LLPS at the highest pH [1]: at least 500 μM; range of conditions allowing LLPS [1]: over a wider range of conditions; morphology of the separated phase [1]: hydrogels; ability to undergo LLPS / phase separation [1]: only at high salt concentrations

B9: V5-N: N-terminus fragment of DgHBP-1 Lys mutant after trypsin cleavage (protein)
chain: MQLYGAPAVGGVVENAVNAAESGAAATHDAQGAYAEADTAGVLDVNHAEHHDGVHDASGYGFGGLAGHGGFAGHGLYGPGFAGHGLLGAGYAGLGLHGAGFAGHGLHGAGFAK
modifications: HBP-1 derived peptide V5-N
notes: as for B2
**Q.** For B9, which “highest pH at which LLPS was observed” value [1] is on record?
**A.** ≤ 6

**Q.** What about the “range of conditions allowing LLPS” value [1] of the same molecule?
**A.** only under narrow conditions

**Q.** And the “morphology of the separated phase” value [1]?
**A.** hydrogels

**Q.** What about the “ability to undergo LLPS / phase separation” value [1] of the same molecule?
**A.** only at high salt concentrations

B10: DgHBP-1: recombinant histidine-rich beak protein 1 of Humboldt squid (Dosidicus gigas) (protein)
chain: QLYGAPAVGGVVENAVNAAESGAAATHDAQGAYAEADTAGVLDVNHAEHHDGVHDASGYGFGGLAGHGGFAGHGLYGPGFAGHGLLGAGYAGLGLHGAGFAGHGLHGAGFAGHGLYGAGFAGHGLHGFAGHGLYGAGFAGHGLGLGGLHGALGHGALAHY
modifications: Dosidicus gigas
**Q.** Which “pH range of LLPS” value ([1]; at minimal concentration) does the source give for B10 here?
**A.** 6.5-7.5

**Q.** What about the “minimal concentration for LLPS” value ([1]; pH range 6.5-7.5) of the same molecule?
**A.** 20 to 30 µM
